Measured values as given in patent US20160024208A1 (Regeneron, published 2016).

T1: N-Term Biotin Nav1.7 (3-1) peptide, mouse (mouse, not fully specified; N-terminal biotin attached via a G4S linker)
T1 construct: Synthetic peptide; also called Mouse Nav1.7 3-1 N-term biotin
T1 peptide: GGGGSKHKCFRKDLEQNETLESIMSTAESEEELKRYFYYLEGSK

T2: Native Nav1.7 (3-1) peptide, rat (rat)
T2 construct: Synthetic peptide; also called Rat Nav1.7 3-1 native
T2 peptide: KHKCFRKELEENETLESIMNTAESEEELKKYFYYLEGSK

T3: Native Nav1.7 (3-1) peptide, human (human)
T3 construct: Synthetic peptide (Celtek), unbiotinylated; also called Human Nav1.7 3-1 native; Nav1.7 3-1 native peptide
T3 peptide: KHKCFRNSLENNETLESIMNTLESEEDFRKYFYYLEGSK

T4: N-Term Biotin Nav1.7 (3-1) peptide, mulatta (mulatta (monkey), not fully specified; N-terminal biotin attached via a G4S linker)
T4 construct: Synthetic peptide; also called Mulatta Nav1.7 3-1 N-term biotin; monkey
T4 peptide: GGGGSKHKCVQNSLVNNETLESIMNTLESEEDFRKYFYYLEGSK

T5: C-term Biotin Nav1.7 (3-1) peptide, human (human, not fully specified; C-terminal biotin attached via a G4S linker)
T5 construct: Synthetic peptide; also called Human Nav1.7 3-1 C-term biotin
T5 peptide: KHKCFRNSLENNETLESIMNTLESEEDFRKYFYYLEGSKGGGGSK

T6: N-Term Biotin-Nav1.7 (3-1) peptide, human (human, not fully specified; N-terminal biotin attached via a G4S linker)
T6 construct: ELISA peptide
T6 peptide: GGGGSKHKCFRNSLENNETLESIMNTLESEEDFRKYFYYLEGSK

T7: Native Nav1.7 (3-3) peptide, human (human)
T7 construct: Synthetic peptide, unbiotinylated; also called Human Nav1.7 3-3 native; Nav1.7 3-3 native peptide
T7 peptide: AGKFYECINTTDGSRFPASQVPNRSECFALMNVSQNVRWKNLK

T8: C-Term Biotin Nav1.7 (3-3) peptide, mouse (mouse, C-terminal biotin attached via a G4S linker)
T8 construct: Synthetic peptide; also called Mouse Nav1.7 3-3 C-term biotin
T8 peptide: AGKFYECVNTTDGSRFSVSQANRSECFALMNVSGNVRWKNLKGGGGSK

T9: C-Term Biotin Nav1.7 (3-3) peptide, rat (rat, C-terminal biotin attached via a G4S linker)
T9 construct: Synthetic peptide; also called Rat Nav1.7 3-3 C-term biotin
T9 peptide: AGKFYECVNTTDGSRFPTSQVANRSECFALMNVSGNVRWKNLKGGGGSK

T10: C-term Biotin Nav1.7 (3-3) peptide, human (human, C-terminal biotin attached via a G4S linker)
T10 construct: Synthetic peptide; also called Human Nav1.7 3-3 C-term biotin
T10 peptide: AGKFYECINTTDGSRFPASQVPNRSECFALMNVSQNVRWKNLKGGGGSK


Columns and labels:
[1] = biological target: T11, full-length human Nav1.7 fused at its N-terminus to GFP, expressed in HEK293 cells (human, UniProt Q15858 1-1988); assay: cell-based or functional assay
[2] = biological target: T1, N-Term Biotin Nav1.7 (3-1) peptide, …; assay: ELISA on coated peptide
Description: (§1) Anti-Naᵥ 1.7 antibodies were tested for their ability to bind to the Naᵥ 1.7 peptides. The various peptides were coated overnight onto 96-well Nunc Immunosorp plates at a concentration of 4 μg/mL in PBS, followed by blocking for 1 hour in a suitable blocking agent. For biotinylated peptides, avidin was first coated on Nunc Immunosorp plates at 2 μg/mL in PBS overnight, followed by blocking as described, and the plate was then coated with biotinylated peptides at a concentration of 0.4 μg/mL and incubated for 1 hour at room temperature. Purified anti-Naᵥ 1.7 antibodies were diluted to a final concentration of 0.1 μg/mL and 1.0 μg/mL and added to the wells of the coated microtiter plates followed by incubation for 1 hour at room temperature. Bound antibodies were detected with horseradish peroxidase (HRP) conjugated anti-mouse or anti-human IgG (Jackson Immuno Research Lab, West Grove, Pa.) depending on the antibody species and developed by colorimetric response using tetramethylbenzidine (TMB) substrate (BD Biosciences). Absorbance was read at OD₄₅₀ on a plate reader for 0.1 second.
(§2) Values in Table 11 represent absolute binding ranges (at OD450) to plate-coated peptides for antibodies added at 1 μg/ml as follows: OD450<0.2: −; 0.2<OD450<1: +; 1<OD450<2: ++; 2<OD450<4: +++; NT: Not Tested.

[3] = biological target: T2, Native Nav1.7 (3-1) peptide, rat; assay: ELISA on coated peptide
Description: as §1, §2

[4] = biological target: T3, Native Nav1.7 (3-1) peptide, human; assay: SPR, captured antibody, peptide analyte
Procedure, shortened: (§3)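 Peptide analytes flowed at multiple concentrations over anti-Nav1.7 antibodies held by an anti-Fc capture surface. After reference-surface and buffer-blank subtraction, a global 1:1 Langmuir fit gave ka and kd, with KD as kd/ka and dissociative half-life as ln2/kd.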

[5] = biological target: T4, N-Term Biotin Nav1.7 (3-1) peptide, …; assay: SPR, captured antibody, peptide analyte
Procedure, shortened: as §3

[6] = biological target: T1, N-Term Biotin Nav1.7 (3-1) peptide, …; assay: SPR, captured antibody, peptide analyte
Procedure, shortened: as §3

[7] = biological target: T2, Native Nav1.7 (3-1) peptide, rat; assay: SPR, captured antibody, peptide analyte
Procedure, shortened: as §3

[8] = biological target: T5, C-term Biotin Nav1.7 (3-1) peptide, …; assay: SPR, captured biotin-peptide, antibody analyte
[9] = biological target: T4, N-Term Biotin Nav1.7 (3-1) peptide, …; assay: ELISA on coated peptide, antibody 1 ug/ml, OD450 grade
Procedure, shortened: (§4)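 Binding graded from absorbance at OD450 for antibodies applied at 1 μg/ml (− below 0.2, + 0.2–1, ++ 1–2, +++ 2–4; NT not tested); antibodies were also run at 0.1 μg/mL. Biotin-peptides at 0.4 μg/mL on avidin-coated plates, other peptides at 4 μg/mL; 1 h RT binding; HRP anti-IgG/TMB detection.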

[10] = biological target: T6, N-Term Biotin-Nav1.7 (3-1) peptide, …; assay: as above
Procedure, shortened: as §4

[11] = biological target: T11, full-length human Nav1.7 fused at its …; assay: flow cytometry; % stained hNav1.7-GFP-HEK293 minus parental HEK293
Description: The binding of anti-Naᵥ 1.7 human antibodies to full-length Naᵥ 1.7 expressed in HEK293 cells was determined by flow cytometry (FACS). HEK293 cells were stably-transfected with full-length human Nav1.7 fused at its N-terminus to the green fluorescent protein (GFP) to generate cell line hNaᵥ 1.7-GFP-HEK293. Antibody binding to the transfected cells overexpressing Naᵥ 1.7 was compared to binding to the parental HEK293 cell line. To perform the binding experiments, adherent cells were collected using 1 mM EDTA in PBS, washed and re-suspended in cold PBS containing 5% FBS. For each binding experiment, the anti-Naᵥ 1.7 antibody (at concentrations ranging from 1 nM to 13 nM), was added to 250,000 cells in 500 μL of PBS with 5% FBS. After incubation for 20 minutes on ice, the secondary antibody, recognizing either human-Fc and conjugated to cyanine 5 (Cy5) or recognizing mouse-Fc and conjugated to allophyocyanin (APC), was then added to the cell mixture at a final secondary antibody concentration of 1.7 nM. After incubating for 20 minutes on ice, the cells were resuspended in PBS+5% FBS and then sorted and analyzed on a flow cytometer to determine relative binding by the candidate antibodies. For FACS analysis, gating was applied to examine only healthy live cells in the antibody binding experiments, and percentage stained was recorded. Staining of secondary antibodies alone to Naᵥ 1.7-GFP-HEK293 cells gave low background signals (1-2%). Specific binding was measured as the percent binding to Naᵥ 1.7-GFP-HEK293 cells minus percent binding to parental HEK293 cells.

[12] = biological target: T7, Native Nav1.7 (3-3) peptide, human; assay: SPR, captured antibody, peptide analyte
Procedure, shortened: as §3

[13] = biological target: T8, C-Term Biotin Nav1.7 (3-3) peptide, …; assay: SPR, captured antibody, peptide analyte
Procedure, shortened: as §3

[14] = biological target: T9, C-Term Biotin Nav1.7 (3-3) peptide, rat; assay: SPR, captured antibody, peptide analyte
Procedure, shortened: as §3

[15] = biological target: T10, C-term Biotin Nav1.7 (3-3) peptide, …; assay: SPR, captured biotin-peptide, antibody analyte
[16] = biological target: T11, full-length human Nav1.7 fused at its …; assay: flow cytometry on Nav1.7-GFP-HEK293, antibody 3.3 nM
Description: The specificity of binding of anti-Naᵥ 1.7 human antibodies to full-length Naᵥ 1.7 expressed in HEK293 cells was determined by peptide competition experiments using flow cytometry.
HEK293 cells stably-transfected with full-length Naᵥ 1.7 fused at its N-terminus to GFP (Naᵥ 1.7-GFP-HEK293) were used for this study. Antibody binding to the transfected cells overexpressing Naᵥ 1.7 was compared to binding in the presence of excess peptide and to binding to the parental HEK293 cell line. To perform the binding experiments, adherent cells were collected using 1 mM EDTA in PBS, washed and re-suspended in cold PBS containing 5% FBS. For each binding experiment the anti-Naᵥ 1.7 antibody at a final concentration of 3.3 nM (in PBS/5% FBS) was added to cells either directly or after incubating for 10 min on ice with a 1000-fold molar excess (3.3 uM final concentration in PBS/5% FBS) of synthetic peptide with sequence corresponding to the loop specificity of the antibody. The antibodies designated as H4H391P, H4H443B, H4H448B, and H1M797N were preincubated as described above with a synthetic peptide corresponding to EC loop 3-1 (amino acid residues 269-338 of SEQ ID NO: 670), whereas the antibodies designated as H4H468P and H1 M852N were preincubated with a synthetic peptide corresponding to EC loop 3-3 (amino acid residues 1333-1382 of SEQ ID NO: 670). The antibody or antibody-peptide mixture was then allowed to incubate with cells for 20 min on ice, followed by addition of 500 uL of cold PBS/5% FBS. Cells were collected by centrifugation, resuspended in 500 uL of cold PBS/5% FBS, and then secondary antibody matched to the antibody isotype (either anti-human-Fc conjugated to Cyanine 5 or anti-mouse-Fc conjugated to allophyococyanin) was added. Binding was detected on the flow cytometry instrument and analyzed as percent binding using the instrument software. For FACS analysis appropriate gating was applied so that only healthy, live cells were counted. Background staining of secondary antibodies alone to Naᵥ 1.7-GFP-HEK293 cells was tested and recorded for all samples, and results ranged between 1-2% binding.

Row | Current blocking (Average % inhibition), IonWorks Quattro, 223 nM antibody [1] | OD450 [2] | Kd [4] | t1/2 [4] | Kd [5] | t1/2 [5] | binding result [6] | Kd [8] | t1/2 [8] | OD450 [9] | OD450 [10] | % Binding Nav1.7 [11] | Kd [12] | t1/2 [12] | binding result [14] | binding result [8] | Kd [15] | t1/2 [15] | Binder | also measured
1 | 6% | < 0.2 od | 9.93 nM | 17.5 min | 4.14 nM | 27.4 min | no binding | 0.815 nM | 106 min | 2 to 4 od | 2 to 4 od | 5.7% | – | – | – | – | – | – | H2M799N (antibody, V domains shown, Hybridoma-derived) VH: EVQLVESGGGLVQPGGSLRLSCAASGFTFSIFWMNWVRQAPGKGLEWVAKIKQDGSEKYYVDSMKGRFTISRDNVKNSLYLQMNSLRAEDTAVYYCARGVWGSYRYTSSGLDVWGQGTTVTVSS VL: not shown | OD450 [3]: < 0.2 od; binding result [7]: no binding
2 | – | – | – | – | – | – | – | – | – | – | – | 71.8% | 630 nM | 0.31 min | no binding | no binding | 47.2 nM | 1.3 min | H4H468P (antibody, V domains shown, also called REGN1064) VH: QVQLVESGGGVVQPGRSLRLSCTASGFTFSVYGIHWVRQAPGKGLEWVAVIWYDGSNKYYTDSVKGRFTISRDNSKNTLYLQMNSLRAEDTALYYCAREGDLSSSSGSGGYHYVVDVWGQGTTVTVSS VL: AIQMTQSPSSLSASVGDRVTITCRASQDIRNDLGWYQQKPGNAPKLLIYSTSSLQSGVPSRFSGSGSGTDFTLTISSLQPEDFATYYCLQDYNYPLTFGGGTKVEIK | binding result [13]: no binding; % Binding Nav1.7 (Stable Line) [16]: 89.5%
3 | – | – | – | – | – | – | – | – | – | – | – | – | 16 nM | 17 min | no binding | no binding | 0.138 nM | 743 min | H4H471P (antibody, V domains shown) VH: QVQLVESGGGLVKPGGSLRLSCAASGVTFSDYYMTWIRQAPGKGLEWVSYISTDGRTIYYADSVKGRFTISRDNAKNSLYLQMNNLRAEDTAVYYCARGVDSDDYEDFYSYYDMDVWGQGTTVTVSS VL: DIQMTQSPSSLSASVGDRVTITCRASQGISNYLAWFQQKPGKAPKSLIYAASSLQGGVPSRFSGSGSGTDFTLTISSLQPEDFATYYCQQYNSYPLTFGGGTKVEIK | –
4 | 25.5% | < 0.2 od | 0.612 nM | 8.6 min | 0.257 nM | 36.1 min | no binding | 0.218 nM | 101 min | 2 to 4 od | 2 to 4 od | 3.7% | – | – | – | – | – | – | H4H362B (antibody, V domains shown) VH: QVQLVESGAEVKKPGASVKVSCKASGYTFTTYGISWVRQAPGQGLEWMGWISAYNGKTNYAQKFQGRVTMTTDTSTNTAYMELRSLRFDDTAVYYCARDGGTPFYYWGQGTLVTVSS VL: not shown | –
